Data on 1 protein can be found in FireProtDB (doi:10.1074/jbc.m110728200).

For the data set the following is noted: Homo sapiens; pH 2.7; Thermal; DSC; Gly-HCl 0.05 M; whole UniProt chain shown.

B1: Lysozyme C wild type, P61626 (protein)
chain: MKALIVLGLVLLSVTVQGKVFERCELARTLKRLGMDGYRGISLANWMCLAKWESGYNTRATNYNAGDRSTDYGIFQINSRYWCNDGKTPGAVNACHLSCSALLQDNIADAVACAKRVVRDPQGIRAWVAWRNRCQNRDVRQYVQGCGV
The term Tm denotes the temperature at the midpoint of the melting transition. Consider B1, for which the melting temperature (Tm) came out at 64.9 °C, the “heat capacity change of unfolding” value worked out at 1.58 kcal/mol/K and the “unfolding enthalpy (calorimetric)” value stood at 114 kcal/mol.
